{
  "source": "paper PMC7797080",
  "about": "(Nucleic Acids Research, 2020)",
  "molecular_target": "the molecule itself",
  "assay": "SEC",
  "data": [
    {"protein": "PSEUDOURIDINE KINASE from Arabidopsis (AtPUKI), native, tag-free (enzyme, Arabidopsis thaliana) GGGSMEPVIIGALILDVHAKPSTTPISGTTVPGQVLFAPGGVARNVADCIFKLGITPFMIGTLGLDGPANVLLKEWKLSMKGILRREDISTPIVSLVYDTNGEVAAGVAGVDAVENFLTPEWIQRFEYNISSARLLMVDANLSSLALEASCKLAAESSVPVWFEPVSVTKSQRIASIAKYVTIVSPNQDELIAMANALCAKNLFHPFRSDENKLSIEDMFRALKPAILVLLKNGVKVVIVTLGSNGALLCSKGNPKKALNIDRKFLRSGEVFKRVQSVCSPNRFSELGSNRSPSLFAMHFPTIPAKVKKLTGAGDCLVGGTVASLSDGLDLIQSLAVGIASAKAAVESDDNVPPEFKLDLISGDAELVYNGAKMLMVHQSML", "values": [
      {"measurement": "stoichiometry N", "value": 2}
    ]}
  ]
}
